The target of test [1] is T1, rat DLL4 extracellular domain (rat, UniProt D3ZHH1 28-530).
T1 construct: extracellular domain; also called ratDLL4 ECD
In words: SPR (Biacore). A digest of the protocol: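 Purified anti-DLL4 antibodies (1 μg/ml) captured on immobilized goat anti-human Fc, with DLL4 ECD injected as analyte; HBS-EPB running buffer (pH 7.4), 25° C, referenced against capture-only surface. On/off rates from global 1:1 Langmuir fit; KD = Koff/Kon.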
In general terms: SPR reads the build-up and loss of mass on a sensor chip optically.

In test [2] the target is T2, human DLL4 extracellular domain (human, UniProt Q9NR61 27-529).
T2 construct: purified recombinant ECD; biotin-labelled or 6xHis-tagged depending on the assay; also called huDLL4 ECD; hu DLL4 ECD
In words: competition ELISA: biotin-DLL4 ECD to coated huNotch-1. The method, then: Plates were then washed 3 times with wash buffer (PBS, 0.05% Tween-20) and blocked with 200 μl/well blocking buffer (D-PBS, 1% BSA, 1 mM CaCl₂, 0.05% Tween-20) for 1 hour at 25° C. While blocking, biotin labeled DLL4 extracellular domain (14 nM) was mixed with antibody (30 pM-66 nM, 3-fold serial dilution in blocking buffer) for 1 hour at 25° C. with shaking. Assay plates were washed after blocking, and incubated with DLL4/antibody mixtures (100 μl/well, 1 hour at 25° C. with shaking). Plates were washed again and 100 μl/well streptavidin conjugated with HRP (Fitzgerald #65R-S104PHRPx, diluted 1:5,000 in blocking buffer) was added for 1 hour at 25° C. with shaking. After a final wash, plates were developed using 100 μl/well substrate (TMB Sigma #T8665), and the reaction was stopped using 100 μl/well 1N HCl, and the absorbance was read at 450 nm. Data were analyzed using Graphpad Prism software and IC₅₀ values were reported as the concentration of antibody to achieve 50% reduction of DLL4 bound to Notch1.
Further characterization determined 37D10 and 40B10 were identical rat mAbs.

Test [3] concerns the target T3, mouse DLL4 on cells (mouse, UniProt Q9JI71 27-686).
T3 construct: whole, on cells; also called mouse DLL4-293G; mu DLL4 cells
In words: FACS on cells expressing mouse DLL4.

Test [4] deals with T4, human DLL4, full length, on cells (human, UniProt Q9NR61 27-685). Description: cell-based or functional assay.
For test [5], the target named is T2, human DLL4 extracellular domain. Description: SPR (Biacore). The method, then: (§1) The BIACORE® surface plasmon resonance assay (Biacore, Inc., Piscataway, N.J., US) determines the affinity of antibodies with kinetic measurements of on-rate and off-rate constants. Binding of DLL4 antibodies to a purified recombinant DLL4 extracellular domain (ECD) was determined by surface plasmon resonance-based measurements with a Biacore® instrument (either a Biacore 2000, Biacore 3000, or Biacore T100; GE Healthcare, Piscataway, N.J., US) using running buffer HBS-EPB (10 mM HEPES [pH 7.4], 150 mM NaCl, 3 mM EDTA, 0.1 mg/ml BSA and 0.005% surfactant P20) at 25° C. For example, approximately 9000 RU of goat anti-human Fc specific polyclonal antibody (Thermo Fisher Scientific Inc., Rockford, Ill., US) diluted in 10 mM sodium acetate (pH 4.5) is directly immobilized across a CMS research grade biosensor chip using a standard amine coupling kit according to manufacturer's instructions and procedures at 25 μg/ml. Unreacted moieties on the biosensor surface were blocked with ethanolamine. For kinetic analysis, rate equations derived from the 1:1 Langmuir binding model were fitted simultaneously to multiple antigen injections (using global fit analysis) with the use of Scrubber 2 (BioLogic Software), Biacore Biaevaluation 4.0.1 software or Biacore T100 Evaluation software. Purified antibodies were diluted in running buffer for capture across goat anti-human Fc reaction surfaces. Antibodies to be captured as a ligand (1 μg/ml) were injected over reaction matrices at a flow rate of 10 μl/min. During the assay, all measurements were referenced against the capture surface alone (i.e., with no captured anti-DLL4 antibody). […] The equilibrium dissociation constant KD (M) of the reaction between antibodies and the target antigen was then calculated from the kinetic rate constants by the following formula: KD=Koff/Kₒₙ. Binding was recorded as a function of time and kinetic rate constants were calculated.

Test [6] has as its target T5, cynomolgus monkey DLL4 extracellular domain (cynomolgus monkey).
T5 construct: extracellular domain; also called cynoDLL4 ECD; Cyno DLL4
Description: SPR (Biacore). The method, then: as §1

Test [7] has as its target T4, human DLL4, full length, on cells. Description: FACS, DLL4 cells. The protocol: Stable cell lines overexpressing cell-surface DLL4 were harvested from tissue culture flasks, washed four times and resuspended in phosphate buffered saline (PBS) containing 1% bovine serum albumin and 1 mM CaCl₂ (FACS buffer). 1.5×10⁵ cells were incubated with antibodies at various concentrations in FACS buffer for 60 minutes on ice. […] Following an incubation on ice (4° C., 60 minutes), cells were washed three times and resuspended in FACS buffer. Fluorescence was measured using a Becton Dickinson FACSCalibur-HTS (Becton Dickinson, San Jose, Calif., US). Data were analyzed using Graphpad Prism software and EC₅₀ values were reported as the concentration of antibody to achieve 50% of maximal DLL4 antibodies binding to DLL4 expressing cells. […]

The target of test [8] is T6, mouse DLL4 extracellular domain (mouse, UniProt Q9JI71 27-532).
T6 construct: extracellular domain; also called muDLL4 ECD; murine DLL4
In words: binding ELISA, DLL4 ECD. A general note: In an ELISA, binding on a coated surface is turned into a signal by an enzyme label.

Test [9] addresses T2, human DLL4 extracellular domain. Description: binding ELISA, DLL4 ECD.
For test [10], the target named is T4, human DLL4, full length, on cells. In words: competition FACS: huNotch-1-biotin to DLL4 cells. The method, then:
Notch blocking assay: Briefly, stable cell lines overexpressing cell-surface DLL4 were harvested from tissue culture flasks and re-suspended in phosphate buffered saline (PBS) containing 1% bovine serum albumin and 1 mM CaCl₂ (FACS buffer). HEK293G-DLL4 cells were dispensed into 96-well plate (v-bottom) at 1.5×10⁵ cells/well in FACS buffer. After spinning down cells and discarding the supernatant, 50 μL of purified IgG with appropriate dilution were added to each well, and incubated on ice at 4° C. for 60 minutes, followed by addition of 50 μL/well of Notch1-biotin at 0.2 μg/mL for human DLL4-293G or 2.0 μg/mL for mouse DLL4-293G (1.0 or 0.1 μg/mL final) for an additional 1 hour incubation ice at 4° C. After washing the cells two times with FACS buffer, 50 μL of R-phycoerythrin-conjugated streptavidin (1:150 dilution in FACS buffer) (Jackson ImmunoResearch, West Grove, Pa., Cat.#016-110-084) were added. Following an incubation on ice (4° C., 60 minutes), cells were washed three times and resuspended in FACS buffer. Fluorescence was measured using a Becton Dickinson FACSCalibur-HTS (Becton Dickinson, San Jose, Calif.). Data were analyzed using Graphpad Prism software, and IC₅₀ values were reported as the concentration of antibody to achieve 50% reduction of Notch1 bound to DLL4 expressing cells. […]

T2 sequence (Q9NR61 27-529 limits assumed): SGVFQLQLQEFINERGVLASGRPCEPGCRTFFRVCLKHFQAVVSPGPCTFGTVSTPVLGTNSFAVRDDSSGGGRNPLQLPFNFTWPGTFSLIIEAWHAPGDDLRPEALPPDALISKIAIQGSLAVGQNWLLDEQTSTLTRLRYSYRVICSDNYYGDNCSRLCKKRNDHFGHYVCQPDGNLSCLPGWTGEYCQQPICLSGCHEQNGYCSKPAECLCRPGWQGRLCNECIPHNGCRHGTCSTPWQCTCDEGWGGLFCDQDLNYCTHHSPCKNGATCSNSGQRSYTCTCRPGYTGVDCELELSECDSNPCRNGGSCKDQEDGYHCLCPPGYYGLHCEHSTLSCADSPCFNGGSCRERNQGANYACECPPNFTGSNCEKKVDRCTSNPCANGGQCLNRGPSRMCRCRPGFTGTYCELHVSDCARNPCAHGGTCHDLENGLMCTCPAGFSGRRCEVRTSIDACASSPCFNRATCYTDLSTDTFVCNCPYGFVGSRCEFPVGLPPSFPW
T4 sequence (Q9NR61 27-685 limits assumed): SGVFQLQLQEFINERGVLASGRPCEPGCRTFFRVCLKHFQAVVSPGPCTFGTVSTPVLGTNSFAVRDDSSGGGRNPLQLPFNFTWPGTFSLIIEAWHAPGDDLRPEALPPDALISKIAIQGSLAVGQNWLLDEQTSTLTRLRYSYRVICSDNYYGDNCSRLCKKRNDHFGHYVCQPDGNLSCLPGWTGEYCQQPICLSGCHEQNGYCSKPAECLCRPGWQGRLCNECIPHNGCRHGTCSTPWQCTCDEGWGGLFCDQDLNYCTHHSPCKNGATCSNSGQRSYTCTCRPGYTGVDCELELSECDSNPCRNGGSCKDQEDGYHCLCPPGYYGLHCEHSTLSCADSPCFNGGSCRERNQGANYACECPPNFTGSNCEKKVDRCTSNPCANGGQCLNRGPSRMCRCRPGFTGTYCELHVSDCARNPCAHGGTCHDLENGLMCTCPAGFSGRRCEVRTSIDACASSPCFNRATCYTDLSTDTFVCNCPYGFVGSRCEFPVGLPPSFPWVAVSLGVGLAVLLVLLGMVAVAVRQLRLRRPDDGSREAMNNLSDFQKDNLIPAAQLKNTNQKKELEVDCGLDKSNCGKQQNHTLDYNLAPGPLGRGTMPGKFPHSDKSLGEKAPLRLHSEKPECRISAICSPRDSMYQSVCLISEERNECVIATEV
T6 sequence (Q9JI71 27-532): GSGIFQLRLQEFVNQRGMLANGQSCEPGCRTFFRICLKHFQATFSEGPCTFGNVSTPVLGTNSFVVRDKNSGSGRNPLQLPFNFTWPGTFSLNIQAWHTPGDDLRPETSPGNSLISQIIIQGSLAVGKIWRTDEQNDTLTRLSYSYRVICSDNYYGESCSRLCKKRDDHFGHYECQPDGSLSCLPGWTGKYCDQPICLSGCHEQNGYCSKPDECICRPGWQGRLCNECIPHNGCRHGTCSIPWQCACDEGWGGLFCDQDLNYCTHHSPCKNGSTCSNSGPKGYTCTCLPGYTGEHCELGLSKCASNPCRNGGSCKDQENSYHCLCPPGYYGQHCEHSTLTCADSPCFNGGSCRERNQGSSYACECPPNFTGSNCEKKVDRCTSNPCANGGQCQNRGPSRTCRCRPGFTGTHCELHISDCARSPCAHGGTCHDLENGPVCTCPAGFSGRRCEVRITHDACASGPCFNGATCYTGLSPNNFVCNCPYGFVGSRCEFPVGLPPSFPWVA
T3 sequence (Q9JI71 27-686): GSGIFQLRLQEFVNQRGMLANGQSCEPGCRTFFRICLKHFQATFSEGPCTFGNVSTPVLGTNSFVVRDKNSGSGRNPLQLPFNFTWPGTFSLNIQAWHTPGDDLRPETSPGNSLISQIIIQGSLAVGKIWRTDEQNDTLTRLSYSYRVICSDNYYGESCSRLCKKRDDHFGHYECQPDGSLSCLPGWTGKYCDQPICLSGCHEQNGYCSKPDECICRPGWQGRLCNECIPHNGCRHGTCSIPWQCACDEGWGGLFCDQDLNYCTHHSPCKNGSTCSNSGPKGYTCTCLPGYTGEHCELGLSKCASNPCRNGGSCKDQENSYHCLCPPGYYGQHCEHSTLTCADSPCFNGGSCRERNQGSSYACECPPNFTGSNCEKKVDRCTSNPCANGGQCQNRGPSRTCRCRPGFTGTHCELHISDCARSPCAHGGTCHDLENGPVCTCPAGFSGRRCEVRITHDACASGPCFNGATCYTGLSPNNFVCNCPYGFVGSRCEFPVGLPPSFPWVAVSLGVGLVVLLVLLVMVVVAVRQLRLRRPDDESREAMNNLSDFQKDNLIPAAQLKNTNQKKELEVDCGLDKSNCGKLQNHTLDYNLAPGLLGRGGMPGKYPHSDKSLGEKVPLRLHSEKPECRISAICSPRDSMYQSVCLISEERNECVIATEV
T1 sequence (D3ZHH1 28-530): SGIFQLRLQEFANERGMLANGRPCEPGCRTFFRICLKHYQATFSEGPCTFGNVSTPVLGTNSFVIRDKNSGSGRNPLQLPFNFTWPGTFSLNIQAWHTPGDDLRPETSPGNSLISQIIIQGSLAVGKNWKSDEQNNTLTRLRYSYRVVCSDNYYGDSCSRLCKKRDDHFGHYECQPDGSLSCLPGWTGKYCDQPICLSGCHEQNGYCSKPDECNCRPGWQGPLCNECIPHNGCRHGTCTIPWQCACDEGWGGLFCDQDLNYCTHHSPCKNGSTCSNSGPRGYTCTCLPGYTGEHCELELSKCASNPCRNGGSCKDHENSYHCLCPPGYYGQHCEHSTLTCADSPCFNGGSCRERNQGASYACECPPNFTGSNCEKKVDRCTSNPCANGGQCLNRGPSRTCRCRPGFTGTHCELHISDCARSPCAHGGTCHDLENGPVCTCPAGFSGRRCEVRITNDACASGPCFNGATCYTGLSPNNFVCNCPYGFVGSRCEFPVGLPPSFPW

B1: 38H12 rat anti-DLL4 monoclonal antibody (antibody, rat IgG2a, V domains shown)
VH: EVQLVESGGGLVQPGRSLKLSCAASGFTFSNYGMYWIRQAPTKGLQWVAFISHGGGITYYRDSVKGRFTISRDNAKSTLYLQMDSLRSEDTATYHCAALNWELGIDYWGQGVMVTVSS
VL: DIQMTQSPASLSASLGETISIECRASEDIYSNLAWYQKKSGKSPQLLIYAANRLQDGVPSRFSGSGSGTQYSLKISGMQPEDEGDYFCLQGSKFPLTFGSGTKLEIKR
notes: rat IgG2a/k hybridoma mAb; also called MC10-38H12.2G8; 38H12 rat mAb
The term IC50 denotes the midpoint of a concentration-inhibition curve. The Kd is the free concentration of one partner at which half of the binding sites on the other are occupied at equilibrium, for simple one-to-one binding. Usually koff stands for a measure of how fast the partners let go of each other. By kon is commonly meant a measure of how fast the partners come together. The EC50 is the concentration that produces a half-maximal response. In the case of B1, the binding result in test [1], in test [3] and in test [8] was “no binding” in each case. Also, the IC50 in test [2] turned out to be 3.63 nM; in test [10], 1.7 nM. Moreover, in test [4], the “Notch activation Inhibition (IC50, nM), huDLL4 cell/Notch reporter cells” value is 0.5 nM. Further, the Kd came to 0.3 nM in [5] and 0.4 nM in [6]. The koff in test [5] was found to be 0.00011 s⁻¹; in test [6], 9.8e-05 s⁻¹. For the same molecule, the kon amounted to 400000 M⁻¹ s⁻¹ in [5] and 260000 M⁻¹ s⁻¹ in test [6]. Also, the EC50 is 1.2 nM in test [7] and 0.06 nM in test [9].

For the origin of these results see patent US20110217237A1 (AbbVie / Abbott, published 2011).
